Data from the supplement of paper PMC10567573.
± gives the standard deviation.

Experiment: protein stability index of a GFP-peptide fusion (GPS, HEK-293T) (PSI 1-6); higher = more stable
Details: c terminus: a fixed tail appended
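Note: 24-mer peptide tiles fused after GFP, lentivirally expressed, FACS-sorted into six equal bins by GFP/DsRed ratio, decoded by Illumina sequencing, PSI is the read-weighted mean bin number.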

Sequence	protein stability index (treatment: DMSO)	protein stability index (treatment: MLN4924 1 uM, 8 h)
RAASAMQFFTKGYQETISDVLNDA [GCH1]	3.38 ± 0.12	3.53 ± 0.072
RISNPSDDNSCEDLEEERREEEEK [PCMTD2]	5.59 ± 0.099	5.704 ± 0.05
QDMSQVSGKESPPVSDTPDEGDEP [IKZF1]	5.38 ± 0.41	5.62 ± 0.32
HFAAASTHGALCLELLVNNGADVN [ANKRD44]	2.73 ± 0.23	2.62 ± 0.38
VEEGNVQTLLPAACLLQLAEIQEA [KLHL20]	3.58 ± 0.52	3.84 ± 0.43
GVPGQPLNFKAEPESETSILLSWT [PTPRD]	2.83 ± 0.27	2.98 ± 0.49
VLEEQLVKAKEQIENYKKQTRNGL [FUT8]	3.77 ± 0.1	3.89 ± 0.35
EGKRKAFYTCASHVTVVILFFVPC [OR4A15]	2.77 ± 0.18	3.03 ± 0.38
QKNKKILKSAKDLPPDALIIEYRG [KMT2E]	2.82 ± 0.43	3.07 ± 0.37
TRAPQRAHEVLQELRDISSMAMEY [FBXO28]	3.44 ± 0.11	3.48 ± 0.3
VDRWPAPVPGKTLHLPIMGVVMKV [DENND6A]	2.63 ± 0.39	2.4 ± 0.36
PNGKHSTNFVSRYDPRFNSWIQLP [KLHL14]	2.32 ± 0.097	2.58 ± 0.24
VMAYDRYMAICKPLHELITMNRRV [OR4A15]	2.25 ± 0.35	2.23 ± 0.37
KEDQAWDGASQDCPPLPAGVSFHI [FBXO34]	3.58 ± 0.33	3.46 ± 0.31
EEVLCDSCIGNKQKAVKSCLVCQA [TRIM29]	5.52 ± 0.17	5.22 ± 0.26
VAVCPIPAAGLDVTQPCGDCGTIQ [HDAC6]	3.46 ± 0.24	3.81 ± 0.41
VVKFVNFLLVNGFQTAIDIFEDRI [TRAF3IP2]	2.33 ± 0.45	2.83 ± 0.59
SEALLYALVHDHQAYAHYLLATFP [ANKRD9]	2.7 ± 0.49	2.61 ± 0.53
LDPHFVPTELWPQEAVPLGLGLED [TEX19]	5.13 ± 0.3	4.91 ± 0.17
VSTNTAMIQTSKTEITELRRTLQG [KRT13]	4.08 ± 0.3	4.06 ± 0.22
PEGGLEEPDALDDSLTSLQWLQEF [FOXJ1]	4.64 ± 0.17	4.53 ± 0.3
FVADEGICYLPHWMMQNLLLEEGG [UFD1]	2.36 ± 0.62	2.28 ± 0.38

Sequence	protein stability index (treatment: DMSO)	protein stability index (treatment: MLN4924 1 uM, 8 h)
RWTSYRFSRVCRLHRGQLSLFCLE [TRIM35]	2.43 ± 0.54	2.23 ± 0.42
GSGTIDFEEFLVMMVRQMKEDAKG [TNNC2]	3.25 ± 0.88	3.88 ± 0.8
WCGISTDMWRSENQNRAYVTLAAH [ZBED1]	2.37 ± 0.4	2.07 ± 0.05
IKCETSPPSSPRTLRLEKLGHPAL [PPFIA4]	3.48 ± 0.35	3.56 ± 0.22
LESLRTAQKTALLQDGRRKVHYLF [DPCD]	2.19 ± 0.22	2.45 ± 0.37
LFPQWHLPIKIAAIIASLTFLYTL [STEAP1]	3.39 ± 0.8	3.13 ± 0.48
EYQVLLDVKARLEGEIATYRHLLE [KRT36]	2.54 ± 0.32	2.53 ± 0.29
LTFHGLILRSQLVTLLVRGVCYSE [CLCN6]	2.98 ± 0.35	3.03 ± 0.26
EEEERLRREEEERRRIEEERLRLE [ACBD3]	5.61 ± 0.25	5.52 ± 0.12
FSGTDWMLEKMDLKEFDLDALLGI [ATF4]	2.33 ± 0.11	2.5 ± 0.49
IIHETAVGMNFLHCMAPPLLHLDL [RIPK4]	2.6 ± 0.64	2.57 ± 0.85
VRVNVLLSRYLIEPCGPGKSKLTY [DLC1]	3.25 ± 0.83	2.68 ± 0.38
PSLHVVKVLLDCGADPDSRDFDNN [FEM1A]	3.46 ± 0.14	3.82 ± 0.21
LLFSDKNVNSNLITWNRVVLLHGP [TRIP13]	2.91 ± 0.79	2.28 ± 0.53
APAGASYNPSFEDHQTLLSAAHEV [NOP53]	4.73 ± 0.14	4.71 ± 0.14
PGMASHPPIPILELADHIERLKAN [PTPRD]	3.6 ± 0.18	3.81 ± 0.19
PTRCTLEAGAMTFHYIIEQGVCYL [SEC22B]	2.93 ± 0.96	3.14 ± 0.46
TIHGLIYNALKLFMEMNQKLFDDC [PPP2R5C]	2.93 ± 0.33	2.89 ± 0.45
TSLRLVFLLAFGLMIIVCIDQWKN [RETREG3]	2.21 ± 0.3	2.03 ± 0.17
TNFEGPPRLKEDQPWMVIEGIRQT [FSD1]	3.5 ± 0.082	3.75 ± 0.33
PVPATPILQLEECCTHNNSATLSW [TRIM9]	3.27 ± 0.16	3.38 ± 0.18
VINQADVRNNRSIIKQLKDVFERD [PLD5]	3.2 ± 0.2	3.29 ± 0.35
